Biological target: SNARE complex containing syntaxin-1A(2-253), synaptobrevin-2(29-93), SNAP-25(11-82) and SNAP-25(141-203) (rat | human, UniProt P32851;P63045;P60880)
Assay: SEC

Chain of SNARE complex containing syntaxin-1A(2-253), synaptobrevin-2(29-93), SNAP-25(11-82) and SNAP-25(141-203) (P32851 2-253, chain 1 of 4): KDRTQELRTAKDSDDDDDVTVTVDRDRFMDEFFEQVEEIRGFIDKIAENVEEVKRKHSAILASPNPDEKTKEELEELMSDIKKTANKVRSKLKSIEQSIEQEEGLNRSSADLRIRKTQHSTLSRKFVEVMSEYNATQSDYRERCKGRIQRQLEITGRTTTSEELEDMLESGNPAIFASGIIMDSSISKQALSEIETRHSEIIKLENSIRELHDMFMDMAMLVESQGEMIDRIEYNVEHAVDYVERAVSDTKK
Chain of SNARE complex containing syntaxin-1A(2-253), synaptobrevin-2(29-93), SNAP-25(11-82) and SNAP-25(141-203) (P63045 29-93, chain 2 of 4): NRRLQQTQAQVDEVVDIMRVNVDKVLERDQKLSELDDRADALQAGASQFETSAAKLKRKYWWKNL
Chain of SNARE complex containing syntaxin-1A(2-253), synaptobrevin-2(29-93), SNAP-25(11-82) and SNAP-25(141-203) (P60880 11-82, chain 3 of 4): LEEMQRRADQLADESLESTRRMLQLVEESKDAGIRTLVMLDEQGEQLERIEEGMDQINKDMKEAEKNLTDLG
Chain of SNARE complex containing syntaxin-1A(2-253), synaptobrevin-2(29-93), SNAP-25(11-82) and SNAP-25(141-203) (P60880 141-203, chain 4 of 4): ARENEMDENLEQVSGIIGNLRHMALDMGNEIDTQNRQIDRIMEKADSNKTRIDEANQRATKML

B1: complexin-1(26-83) (domain or fragment)
chain: KDPDAAKKEEERQEALRQAEEERKAKYAKMEAEREVMRQGIRDKYGIKKKEEREAEAQ
  binding result: binds
